Here are results for 14 variants from the supplement of paper PMC7125110.

B1: glmS ribozyme (parent)
chain: AUAAAAGCGCCAGAACUACAGAAAUGUAGUUGACGAGGAGGAGGUUUAUCGAAUUUUCGGCGGAUGCCUCCAAA

What all share (conditions): with glucosamine-6-phosphate
Variants of B1 are the subject of data set [1]. Put plainly: self-cleavage kobs at 40 uM GlcN6P; higher = faster cleavage; RNA array. An outline of the steps: (§1)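 Weighted Michaelis–Menten fits across concentrations supplied kcat and KM, based on kobs from one- or two-exponential decay fits to normalised per-tile medians. The data came from barcoded ribozyme variants transcribed in situ by E. coli RNA polymerase on sequenced MiSeq chips and tracked at 37 °C by a hybridised Cy3 probe. Glucosamine-6-phosphate (40 μM to 10 mM) in HEPES/KCl/Mg(OAc)2 buffer was flowed in.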

Variants of B1 are the subject of data set [2]. In words: self-cleavage kobs at 160 uM GlcN6P; higher = faster cleavage; RNA array. An outline of the steps: as §1
Variants of B1 are the subject of data set [3]. In words: self-cleavage kobs at 640 uM GlcN6P; higher = faster cleavage; RNA array. The method, boiled down: as §1
In data set [4] the parent is B1. In words: self-cleavage kobs at 2500 uM GlcN6P; higher = faster cleavage; RNA array. The method, boiled down: as §1
Variants of B1 are the subject of data set [5]. In words: self-cleavage kobs at 10000 uM GlcN6P; higher = faster cleavage; RNA array. The method, boiled down:
as §1

± gives the standard error. Variants at the floor of the assay were thinned out.

As to AUAAAAGUGCCAGAACUACAGAAAUGUAGUUGACGAGGAGGAGGUUUAUCGACUUUUCGGCGGAUGCCUCCAAA [C8U A53C], the “self-cleavage kobs at 40 uM GlcN6P” value with glucosamine-6-phosphate [1] was less than 1e-05 s⁻¹. Further, the “self-cleavage kobs at 160 uM GlcN6P” value in the data set with glucosamine-6-phosphate [2] is less than 1e-05 s⁻¹. In the data set with glucosamine-6-phosphate [3], the “self-cleavage kobs at 640 uM GlcN6P” value is less than 1e-05 s⁻¹. Moreover, in the data set with glucosamine-6-phosphate [4], the “self-cleavage kobs at 2500 uM GlcN6P” value was less than 1e-05 s⁻¹. Moreover, the “self-cleavage kobs at 10000 uM GlcN6P” value with glucosamine-6-phosphate [5] was less than 1e-05 s⁻¹.
AUAAAAGCGCCAGAACUACAGAAAUGUAGUUGACGAGGGGGAGGUUUAUCGAAUUUUCUGCGGAUGCCUCCAAA [A39G G59U]: the “self-cleavage kobs at 40 uM GlcN6P” value in the data set with glucosamine-6-phosphate [1] was less than 1e-05 s⁻¹. Moreover, the “self-cleavage kobs at 160 uM GlcN6P” value with glucosamine-6-phosphate [2] is less than 1e-05 s⁻¹. Further, in the data set with glucosamine-6-phosphate [5], the “self-cleavage kobs at 10000 uM GlcN6P” value was 5.72e-05 ± 9.8e-06 s⁻¹.
For AUAAAAGCGCCAGAACUACAGAAAUGUAGCUGACGAGGAGGAGGUUCAUCGAAUUUUAGGCGGAAGCCUCCAAA [U30C U47C C58A U65A], in the data set with glucosamine-6-phosphate [1], the “self-cleavage kobs at 40 uM GlcN6P” value was less than 1e-05 s⁻¹.
As to AUAAAAGCGCCAGAACUACAGAAAUGUAGUUGACGAGUAGGAGGGUUAUCGAAUUUUCGGCGGAUGUCUCCAAA [G38U U45G C67U], the “self-cleavage kobs at 40 uM GlcN6P” value with glucosamine-6-phosphate [1] is less than 1e-05 s⁻¹. The “self-cleavage kobs at 10000 uM GlcN6P” value in the data set with glucosamine-6-phosphate [5] is less than 1e-05 s⁻¹.
Take AUAAAGGCGCCAGAACUACAGAAAUGUAGUUGACGAGGAGGAGGUUUAUCGAAUUUUCGGCGGAUGCCUCAAAA [A6G C71A]: in the data set with glucosamine-6-phosphate [1], the “self-cleavage kobs at 40 uM GlcN6P” value was less than 1e-05 s⁻¹. The “self-cleavage kobs at 160 uM GlcN6P” value with glucosamine-6-phosphate [2] was less than 1e-05 s⁻¹.
As to AUAAAAGGGCCAGAACUACAGAAAUGUACUUGACGAGGAGGAGGUUUAUCGAAUUUUCGGCGGGUGCCUCCAAA [C8G G29C A64G], the “self-cleavage kobs at 40 uM GlcN6P” value in the data set with glucosamine-6-phosphate [1] was less than 1e-05 s⁻¹.
As to AUAAAAGCGCCAGAAAUACAGAAAUGUAGUUGACGAUGAGGAUGUUUAUCGAAUUUCCGGCGGAUGCCUCCAAA [C16A G37U G43U U57C], the “self-cleavage kobs at 40 uM GlcN6P” value with glucosamine-6-phosphate [1] is less than 1e-05 s⁻¹. The “self-cleavage kobs at 640 uM GlcN6P” value in the data set with glucosamine-6-phosphate [3] was less than 1e-05 s⁻¹. Moreover, the “self-cleavage kobs at 10000 uM GlcN6P” value with glucosamine-6-phosphate [5] is less than 1e-05 s⁻¹.
Regarding AUAAAAGCGCCAGAAAUACAGAAAUGUAGUUGACCAGGAGGAGGUUUAUCGAAUUUUCGGCGGAUGCCUCCAAA [C16A G35C], the “self-cleavage kobs at 40 uM GlcN6P” value in the data set with glucosamine-6-phosphate [1] was less than 1e-05 s⁻¹. The “self-cleavage kobs at 160 uM GlcN6P” value with glucosamine-6-phosphate [2] is less than 1e-05 s⁻¹. Also, in the data set with glucosamine-6-phosphate [3], the “self-cleavage kobs at 640 uM GlcN6P” value is less than 1e-05 s⁻¹. The “self-cleavage kobs at 2500 uM GlcN6P” value in the data set with glucosamine-6-phosphate [4] was less than 1e-05 s⁻¹. Also, the “self-cleavage kobs at 10000 uM GlcN6P” value with glucosamine-6-phosphate [5] was less than 1e-05 s⁻¹.
For the variant AUAAAAGCGCCAGAGCUACAGAAAUGUAGUUGACGAGGAGGAGGUUUAUGGAAUUUUCGGCGGAUGCCUUCAAA [A15G C50G C70U], in the data set with glucosamine-6-phosphate [1], the “self-cleavage kobs at 40 uM GlcN6P” value was 5.62e-05 ± 1.6e-05 s⁻¹. Also, the “self-cleavage kobs at 640 uM GlcN6P” value with glucosamine-6-phosphate [3] was determined as 0.000167 ± 3.8e-05 s⁻¹. In addition, in the data set with glucosamine-6-phosphate [4], the “self-cleavage kobs at 2500 uM GlcN6P” value came to 0.00023 ± 5.9e-05 s⁻¹. Also, the “self-cleavage kobs at 10000 uM GlcN6P” value in the data set with glucosamine-6-phosphate [5] worked out at 4.88e-05 ± 1.3e-05 s⁻¹.
On to AUAAAAGCGCCAGAACUACAGAAAUGUAAUUGACGAGGAGGAAGUUUAUCGAAUUUUCGGCGGAUGCCUCCAAA [G29A G43A], for which, in the data set with glucosamine-6-phosphate [1], the “self-cleavage kobs at 40 uM GlcN6P” value is less than 1e-05 s⁻¹. Moreover, the “self-cleavage kobs at 160 uM GlcN6P” value with glucosamine-6-phosphate [2] was less than 1e-05 s⁻¹. The “self-cleavage kobs at 640 uM GlcN6P” value with glucosamine-6-phosphate [3] is less than 1e-05 s⁻¹. In addition, in the data set with glucosamine-6-phosphate [4], the “self-cleavage kobs at 2500 uM GlcN6P” value is less than 1e-05 s⁻¹.
As for AUAAAAGCGCCAGAACUACAGAAAUGUAGUUGACGAGGAGGAGGUUUAUCACAUUUUCGGCGGAUGCCUCCAAA [G51A A52C], in the data set with glucosamine-6-phosphate [1], the “self-cleavage kobs at 40 uM GlcN6P” value was less than 1e-05 s⁻¹. Moreover, the “self-cleavage kobs at 160 uM GlcN6P” value with glucosamine-6-phosphate [2] was less than 1e-05 s⁻¹. The “self-cleavage kobs at 10000 uM GlcN6P” value with glucosamine-6-phosphate [5] was less than 1e-05 s⁻¹.
For AUAAAAGCGCCAAAACUACAGAAAUGUAGUUGACGAGGAGGAGCUUUAUCGAAUUUUCGGAGGAUGCCGCCAAA [G13A G44C C61A U69G], in the data set with glucosamine-6-phosphate [1], the “self-cleavage kobs at 40 uM GlcN6P” value is less than 1e-05 s⁻¹.
With AUAAAAGCGCCAGAACUACAGAAAUGUACUUGACGAGGAGGAUGUUUAUCGAAUUUUCGGCGGAUGUCUCCAAA [G29C G43U C67U], in the data set with glucosamine-6-phosphate [1], the “self-cleavage kobs at 40 uM GlcN6P” value is less than 1e-05 s⁻¹. In addition, in the data set with glucosamine-6-phosphate [5], the “self-cleavage kobs at 10000 uM GlcN6P” value was less than 1e-05 s⁻¹.
Take AUAAAAGCACCAGAAGUACAGAAAUGUAGUUGACGAGGAGGAGGUUUAUCGAAUUUUCGGCGGAUGCCUCCAAA [G9A C16G]: in the data set with glucosamine-6-phosphate [1], the “self-cleavage kobs at 40 uM GlcN6P” value is less than 1e-05 s⁻¹. Moreover, the “self-cleavage kobs at 160 uM GlcN6P” value with glucosamine-6-phosphate [2] was less than 1e-05 s⁻¹. The “self-cleavage kobs at 640 uM GlcN6P” value with glucosamine-6-phosphate [3] is less than 1e-05 s⁻¹. Also, the “self-cleavage kobs at 2500 uM GlcN6P” value with glucosamine-6-phosphate [4] was less than 1e-05 s⁻¹.
